In the supplement of paper PMC12338614:
± gives the uncertainty stated by the source.

B1: library; numbered along this chain (parent)
chain: MEVVDPQQLGMFTEGELMSVGMDTFIHRIDSTEVIYQPRRKRAKLIGKYLMGDLLGEGSYGKVKEVLDSETLCRRAVKILKKKKLRRIPNGEANVKKEIQLLRRLRHKNVIQLVDVLYNEEKQKMYMVMEYCVCGMQEMLDSVPEKRFPVCQAHGYFCQLIDGLEYLHSQGIVHKDIKPGNLLLTTGGTLKISDLGVAEALHPFAADDTCRTSQGSPAFQPPEIANGLDTFSGFKVDIWSAGVTLYNITTGLYPFEGDNIYKLFENIGKGSYAIPGDCGPPLSDLLKGMLEYEPAKRFSIRQIRQHSWFRKKHPPAEAPVPIPPSPDTKDRWRSMTVVPYLEDLHGADEDEDLFDIEDDIIYTQDFTVPGQVPEEEASHNGQRRGLPKAVCMNGTEAAQLSTKSRAEGRAPNPARKACSASSKIRRLSACKQQ

Variants of: B1
Assay: STK11 functional score (HeLa growth suppression), rescaled enrichment; synonymous median = 1, nonsense median = 0 (normalised score)
Settings: with HeLa; variant type: missense
Method: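 Deep mutational scan (TileSeq/POPCode codon randomisation) of full-length codon-optimised STK11 cDNA integrated at a Bxb1 landing pad (AAVS1) in HeLa cells. Restoring functional STK11 suppresses HeLa proliferation. Variant frequencies were measured by NGS before and after about two weeks of growth. The error-corrected enrichment log-ratio was rescaled so that synonymous median = 1 and nonsense median = 0, scores above 1 were compressed, and codon-level and three biological replicate scores were combined; error is the bootstrapped standard error. Scale: synonymous median = 1, nonsense median = 0; below 0.5 = damaging.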

Variant	STK11 functional score
T367C	1.4 ± 0.41
I361R	1.53 ± 0.18
M129K	1.35 ± 0.58
L72G	1.44 ± 0.23
G163L	0.386 ± 0.3
V150P	0.992 ± 0.14
A43P	1.37 ± 0.46
G394V	1.29 ± 0.18
L67G	0.725 ± 0.17
R333S	1.55 ± 0.2
G394H	1.6 ± 0.29
Y131S	1.18 ± 0.22
E120L	1.38 ± 0.28
R103S	1.02 ± 0.11
L102Y	1.2 ± 0.37
D365H	1.34 ± 0.34
T402S	1.31 ± 0.18
P294G	0.877 ± 0.15
A198L	1.13 ± 0.32
K191R	1.42 ± 0.19
H27Y	1.24 ± 0.73
P144S	0.825 ± 0.15
R39K	0.866 ± 0.75
A389C	1.51 ± 0.32

Variant	STK11 functional score
G381W	1.05 ± 0.74
A218R	0.926 ± 0.14
G56Q	-0.0947 ± 0.16
E293S	1.08 ± 0.25
A205G	0.712 ± 0.3
E16C	1.38 ± 0.69
E14V	1.03 ± 0.29
P369K	1.42 ± 0.26
S69R	1.1 ± 0.44
P144G	1 ± 0.21
R87G	1.11 ± 0.083
E293R	0.395 ± 0.12
G276P	1.22 ± 0.22
V4R	1.32 ± 0.2
S299R	1.53 ± 0.18
E376V	1.07 ± 0.15
F157G	-0.101 ± 0.099
T249E	-0.289 ± 0.13
L9I	1.37 ± 0.3
P217W	1.66 ± 0.13
T363G	1.58 ± 0.24
D350N	1.07 ± 0.72
K416Y	1.2 ± 0.58
G135C	1.54 ± 0.27

Variant	STK11 functional score
K96R	1.18 ± 0.16
E138L	1.15 ± 0.22
G15S	1.28 ± 0.12
R425M	1.51 ± 0.29
V372S	1.44 ± 0.3
D53C	1.1 ± 0.3
A218P	0.529 ± 0.093
D5N	1.24 ± 0.67
P324R	1.17 ± 0.15
G10L	1.63 ± 0.21
A198R	0.174 ± 0.098
S19E	1.45 ± 0.34
L140E	-0.3 ± 0.087
K96D	1.27 ± 0.25
C132N	1.23 ± 0.38
Q220V	0.924 ± 0.23
R425T	1.52 ± 0.27
V338A	1.56 ± 0.27
L54N	1.64 ± 0.18
P221D	0.00575 ± 0.14
Q37I	1.65 ± 0.17
G163P	-0.013 ± 0.11
K48T	1.59 ± 0.29
D358H	0.325 ± 0.53

Variant	STK11 functional score
E16A	1.53 ± 0.46
V95D	1.5 ± 0.27
T186W	0.861 ± 0.12
H202P	0.806 ± 0.12
H202D	0.804 ± 0.38
E145T	1.54 ± 0.17
T230F	0.961 ± 0.1
G180M	0.93 ± 0.82
S59I	1.31 ± 0.42
R384I	1.06 ± 0.47
Q7A	1 ± 0.43
T24I	1.02 ± 0.2
D358G	1.08 ± 0.14
E357D	0.56 ± 0.73
G15N	1.69 ± 0.15
S419D	1.1 ± 0.4
P217S	0.334 ± 0.13
K78S	-0.111 ± 0.1
C73L	1.19 ± 0.13
V150C	0.762 ± 0.23
E291H	1.17 ± 0.2
K97C	0.937 ± 0.18
D343G	1.41 ± 0.26
K423N	1.52 ± 0.34

Variant	STK11 functional score
K64A	1.59 ± 0.31
C158H	1.53 ± 0.32
E342M	1.46 ± 0.14
L184A	0.745 ± 0.32
K108N	1.29 ± 0.46
A273S	0.646 ± 0.15
S142H	1.44 ± 0.24
A417T	1.55 ± 0.17
V77S	0.46 ± 0.12
A410F	1.4 ± 0.2
D365F	0.997 ± 0.31
G233C	1.43 ± 0.097
Y156I	1.04 ± 0.24
T250C	1.22 ± 0.24
K96E	0.384 ± 0.32
G171V	1.25 ± 0.26
L286R	-0.117 ± 0.22
W239D	-0.00743 ± 0.45
V128W	0.804 ± 0.43
E407A	1.52 ± 0.23
L72W	1.08 ± 0.51
T230K	1.29 ± 0.1
E121D	0.812 ± 0.56
I99T	1.45 ± 0.43

Variant	STK11 functional score
E121K	0.738 ± 0.69
G180F	0.804 ± 0.068
S59D	0.937 ± 0.59
G394A	1.32 ± 0.31
I99D	0.335 ± 0.1
R39G	1.04 ± 0.45
G171L	1.43 ± 0.39
K81S	0.932 ± 0.1
P315S	1.41 ± 0.14
L344D	1.46 ± 0.17
E98H	0.617 ± 0.08
L344I	1.13 ± 0.43
E223H	1.18 ± 0.17
A406Y	1.07 ± 0.58
D355C	1.31 ± 0.13
S19P	1.32 ± 0.23
K122L	1.43 ± 0.26
C391M	1.62 ± 0.29
I172W	0.519 ± 0.11
H154S	0.47 ± 0.11
N266A	1.45 ± 0.15
P281A	0.84 ± 0.1
S31T	1.5 ± 0.11
M22W	0.633 ± 0.55

Variant	STK11 functional score
Q305D	1.36 ± 0.16
R297I	0.0965 ± 0.092
D23G	1.54 ± 0.2
V337L	0.924 ± 0.13
L201V	0.808 ± 0.096
N181G	0.0242 ± 0.078
M136L	0.989 ± 0.083
Y292E	1.52 ± 0.22
D277N	1.15 ± 0.65
E407S	1.57 ± 0.18
G58L	-0.188 ± 0.095
L286D	-0.166 ± 0.12
P6Y	1.67 ± 0.12
T336G	1.15 ± 0.16
D355P	1.53 ± 0.2
I172M	0.35 ± 0.093
S69G	1.69 ± 0.28
G135F	1.09 ± 0.08
Y246G	0.403 ± 0.093
K312G	1.62 ± 0.15
I238C	1.39 ± 0.33
G135Q	1.57 ± 0.1
R74K	1.11 ± 0.62
